Test results taken from PMC9653380.

Assays:
[1] = target: Fc-tagged human ACE2 (human) (UniProt Q9BYF1); assay: BLI
[2] = target: variant S-trimer (prefusion-stabilized SARS-CoV-2 spike trimer, S-6P backbone, with K417N, E484K, N501Y and D614G) (SARS-CoV-2 | bacteriophage T4); assay: SEC

Substance: variant S-trimer (prefusion-stabilized SARS-CoV-2 spike trimer, S-6P backbone, with K417N, E484K, N501Y and D614G)
- Kd [1]: 9.14 nM
- stoichiometry N [2]: 3
